According to the DeepSol protein solubility set:

Assay: soluble on expression in E. coli; label from the status in PepcDB or PDB records
In the case of “MSGNSLKGKRIGFGLTGSHCTYDAVFPEIEKLVNEGAEVLPIVTYTVKTTNTRFGEGEEWVKKLEQLTGNEVIDTIVKAEPLGPKIPLDCMVIAPLTGNSMSKLANAMTDSPVLMAAKATMRNHRPVVLGISTNDALGLNGVNLMRLMAAKNIYFIPFGQDAPQAKPNSMVAYMPLLRDTILAALEGKQLQPVIIERFRYN”, the “soluble on expression in E. coli” value is reported as “not soluble”.
For “MEHIYKLLRSFKWDCAKYLYKNTLNFKVKRLRRKKNIRVLFAVAESATWKSDCLYKAMAEHPRFTPSILVLPDEQKEKTLLKEEVDSCFNLFCRKGYACTYPYQNGKLINIRKKLKPDIIFYQKPYTFYPKSLLYYKNMNALFCYTNYAFHSLLTDWANDNEFFRLMWQNYYENESANVDLKKKFAGIFSNIVVTGLPVTDLFLTEKHEDKWKKTDKSRKRIIWAPHFSISDGGCLNYSTFLSIAEELLEFIKNTQLPVQMAFKPHPLLKSQLYNYSSWGKEKTDEYYAAWEFLPNAQLETNEYVDLFMTSDAMIHDCGSFTIEYHHTLKPVMYLVNGKEHTATMNSFAKAAYDLHYKGQTIQDIRNFIECTVLENSDYLLEKRKNFFKSYLLPPHNQSATENIIHAILGTGYYTEKKQR”, the “soluble on expression in E. coli” value was “not soluble”.
For “MGSDKIHHHHHHMKTIKGPGIFLAQFIGTQAPFNTLAGIAQWAAGLGYKALQIPCNHPAIFDVERAAASQTYCDEVSGILAEHGLVISELSTHLEGQLVAVHPAYDAAFDAFAPAALHGDPQARQRWAVEKVRQAAVASGRLGLQAHATFSGALAWPFFYPWPPHNQPLLDEAFAELARRWRPLLDLFDEQGVDVCYEIHPGEDLHDGVTFERFLALVDNHPRCNMLYDPSHLHLQQMDYLAYIDIYHARIKAFHVKDAEFRRNGRNGVYGGYQPWQQRAGRFRSPGDGQIDFKGVFSKLTEYDFAGWAVLEWECCLKDSETGAREGSEFIRRHIIPVAGRAFDDFAAGGRE”, the “soluble on expression in E. coli” value was “not soluble”.
For “MGSDKIHHHHHHMTEYKKILVVINPTVDHQAALARAVELATKSNASITAFLSIYDFSYEMTSILSSHEREAMRQGVIDQRSAWLDTAIAPFNSAGVAIDSKVIWHNRPFESVINCALEGQYDLIVKSTHEHDKLKAVIFTPTDWHLMRKAPMPVLMVKEHDWPVAGKILCALNVASEDSEHQTLNGKIIEHAKDLATKFSADVHLVNGYPGTPVNLAIELPDFDAHAYNNNIRMQHQSRVECLAQAYDIPLDRCHVEEGLPEDVIPEVADRIDAELVILGTVGRTGFSAALIGNTAEHVIDSIRCDLLAIKPEGYVSPLAE”, the “soluble on expression in E. coli” value was “not soluble”.
In the case of “MVVQSDGSPEAASYTLIHFWAAYDGESRAGNVRWSRYFAKRPDSRVRYVGVSMDKNLSVFTNTLAFDQIDLSAQRLVENSKRDQMLNIYGLKIRFHSYLVDAHGIIRAVDPNPDQLETIL”, the “soluble on expression in E. coli” value is reported as “not soluble”.
With “STSCVAEEPIKKIAIFGGTHGNELTGVFLVTHWLKNGAEVHRAGLEVKPFITNPRAVEKCTRYIDCDLNRVFDLENLSKEMSEDLPYEVRRAQEINHLFGPKNSDDAYDVVFDLHNTTSNMGCTLILEDSRNDFLIQMFHYIKTCMAPLPCSVYLIEHPSLKYATTRSIAKYPVGIEVGPQPHGVLRADILDQMRRMLKHALDFIQRFNEGKEFPPCAIDVYKIMEKVDYPRNESGDVAAVIHPNLQDQDWKPLHPGDPVFVSLDGKVIPLGGDCTVYPVFVNEAAYYEKKEAFAKTTKLTLNAKSIRSTLH” the “soluble on expression in E. coli” value was “not soluble”.
In the case of “MTRIAIALAQDFADWEPALLAAAARSYLGVEIVHATPDGMPVTSMGGLKVTPDTSYDALDPVDIDALVIPGGLSWEKGTAADLGGLVKRFRDRDRLVAGICAAASALGGTGVLNDVAHTGNALASHKAYPAYRGEAHYRDQPRAVSDGGVVTAAGSAPVSFAVEILKSLGLFGPEAEAELQIFAAEHR”, the “soluble on expression in E. coli” value is reported as “soluble”.
With “MAKTLAQGRKPGSGRKPGKGKTLREGRKPGSGRRRRQDTGGKETDGSQQDQESRLISSRDMEAVDALRELTHSPSSHSAHNSSAAPPPHAAAASTSLPPSLDYTHQSF” the “soluble on expression in E. coli” value was “soluble”.
With “MKKLLAGVLVSAIAFAKPVFMDAEWAKQFCEVWNNTPELVEKLGKSESWTEVPERKLFLYRKDCGPEKQIQLTIKNENGRAVCVYGGWKKDEKTDNDFLMYADTKRWLEMGRKEYGPMKAMLFGRLKFEGPRFVAMKNMGPFEAFLDKIDEVEADTSRCP” the “soluble on expression in E. coli” value was “not soluble”.
For “KNKKVILFAPTFRGNGHRTAHYPFFKINFARLASYCEEHQATVLFKMHPFVRNKLNIPAIYSKYFLDISNYREVNDVLFITDILISDYSSLIYEFSVFKKPMLFYAFDLEDYIYTRDFYEPYETFVPGKIVKIFDELILALENNDFELEKVKPFLNKNFKYKDGKSSERLVKDLFNKFFQ”, the “soluble on expression in E. coli” value was “not soluble”.
For “MSLKANFYKNRVCLNVLAGSVDNAADIYDAAEGHVLVGVLSKNYPDVDTAVEDMKKYSEVTNNAVSVGLGAGDPNQSMMVSLISQHVQPQHINQVFTGVATSRALAGQDKSIVNGLISPTGTVGMVKISTGPLSSRSEDAIVPVETAIAMLKDMGGSSVKYFPMGGLETREEFACVAKACADKDFWLEPTGGIDLENYEEIMQIALDAGVSKIIPHIYSSIIDKATGNTRPEDVKTLLDMTKKLLN”, the “soluble on expression in E. coli” value was “soluble”.
For “MGSDKIHHHHHHMFVMLAMANVTTSAPRAVAPAYDPRLVRAAVAMNENDLPTAEPLLRALLKDDPFDVRAIRLFAELAGRIGRYQDAENLLRRAIELAPQFTAARANLALVLYRTNRAPEALEELAKVTADDPENVGHANLQAAAYGRIGEFDEALALYEQVLKQAAAQPRVWMSYGHMLKTVGRQADGVAAYRRAIELLPTLGEAWWSLANLKTVRFDDADIAAMEAALRVPDLAPEDQWHLDFALGKAFEDRGEAERSFRHYAAGNALRKKRMPYQAEEITAQVDRAVAAFTPATVAGLSGKGCEAGDPIFVLGMPRAGSTLVEQILASHSMVEGTSELADIGYLARTVEGYPAGLSSLQGNDLRALGEQYLARTRIQRHTDRPLFVDKMPNNWIHVPFIRAILPNAKIVDARRHPLSCCFSNFKQHFARGQGFSYSLEDMGRYYRDYVRAMAHFDKVIPGAVHRVIYERMVEDTEAEVRALLAYCGLAFEDNCLAFHRTERAVRTASSEQVRQPIFRDGTDAWKAFEPWLGELKVALGAVQDFYPEAPPFD”, the “soluble on expression in E. coli” value was “not soluble”.
For “GAMGSQQIATAKDKYEWLVSRIVKNHNENWLSVSRKMQASPEYQDYVYLEGTQKAKKLFLQHIHRLKHE”, the “soluble on expression in E. coli” value was “soluble”.
With “MKRFLIITILALSVFSLALTLDDAYRLANITQRKLIMMFSSPTCYYCNLFKKEVFPKEDFQEILIPNFVFVELYATDEKTTLFAKEVLGEESVSYRDLFAGFGVRGTPTFFFFKGKEGLGYLPGYVDKDNFIKILKYVAQELKEDFQTYLKKDDPFVGEPLIIEIFKEDADFVLEKDENAVKVDTVPNEVRRDRIYVTDSPDVAKTLQEKGALRVLLAK” the “soluble on expression in E. coli” value was “not soluble”.
For “METRAAENTAIFMCKCCNLFSPNQSELLSHVSEKHMEEGVNVDEIIIPLRPLSTPEPPNSSKTRDEFLVMKRKRGRPKGSTKKSSTEEELAENIVSPTEDSPLAPEEGNSLPPSSLECSKCCRKFSNTRQLRKHICIIVLNLGEEEGEAGNESDLELEKKCKEDDREKASKRPRSQKTEKVQKISGKEARQLSGAKKPIISVVLTAHEAIPGATKIVPVEAGPPETGATNSETTSADLVPRRGYQEYAIQQTPYEQPMKSSRLGPTQLKIFTCEYCNKVFKFKHSLQAHLRIHTNEKPYKCPQCSYASAIKANLNVHLRKHTGEKFACDYCSFTCLSKGHLKVHIERVHKKIKQHCRFCKKKYSDVKNLIKHIRDAHDPQDKKVKEALDELCLMTREGKRQLLYDCHICERKFKNELDRDRHMLVHGDKWPFACELCGHGATKYQALELHVRKHPFVYVCAVCRKKFVSSIRLRTHIKEVHGAAQEALVFTSSINQSFCLLEPGGDIQQEALGDQLQLVEEEFALQGVNALKEEACPGDTQLEEGRKEPEAPGEMPAPAVHLASPQAESTALPPCELETTVVSSSDLHSQEVVSDDFLLKNDTSSAEAHAAPEKPPDMQHRSSVQTQGEVITLLLSKAQSAGSDQESHGAQSPLGEGQNMAVLSAGDPDPSRCLRSNPAEASDLLPPVAGGGDTITHQPDSCKAAPEHRSGITAFMKVLNSLQKKQMNTSLCERIRKVYGDLECEYCGKLFWYQVHFDMHVRTHTREHLYYCSQCHYSSITKNCLKRHVIQKHSNILLKCPTDGCDYSTPDKYKLQAHLKVHTALDKRSYSCPVCEKSFSEDRLIKSHIKTNHPEVSMSTISEVLGRRVQLKGLIGKRAMKCPYCDFYFMKNGSDLQRHIWAHEGVKPFKCSLCEYATRSKSNLKAHMNRHSTEKTHLCDMCGKKFKSKGTLKSHKLLHTADGKQFKCTVCDYTAAQKPQLLRHMEQHVSFKPFRCAHCHYSCNISGSLKRHYNRKHPNEEYANVGTGELAAEVLIQQGGLKCPVCSFVYGTKWEFNRHLKNKHGLKVVEIDGDPKWETATEAPEEPSTQYLHITEAEEDVQGTQAAVAALQDLRYTSESGDRLDPTAVNILQQIIELGAETHDATALASVVAMAPGTVTVVKQVTEEEPSSNHTVMIQETVQQASVELAEQHHLVVSSDDVEGIETVTVYTQGGEASEFIVYVQEAMQPVEEQAVEQPAQEL”, the “soluble on expression in E. coli” value was “soluble”.
In the case of “MKANQLDILIVPGYKGSDPDHWQTRWEKKLSTARRVQQTHWSKPICEEWVNEVKIAIAQSQKPIVIIAHSLGVPTTIHATLKNAEKVRGAFFVAPPDVSNEKIRPKHLMTFGPYHCKKLSFPSVVIASRNDEFCQFSVAEKLAGDWGALFVDAGLSGHINVESGHGPWPEGLMVFSHFLAKI”, the “soluble on expression in E. coli” value is reported as “not soluble”.
For “LTRFSAGYGSDSMLEASADIGRRFGPDDSVGIRINAAQRGGETAIDGERTRTTVFALGLDWRGERARLSADIGYQDNRLKRARPNVTLAGDAAKVPGAPDAGSNYAQPWSYSNERDVFGTLRGEYDFNDRITGWAAYGMRQSKEENSLANLNGVNGAGQGKFYRFDNAREDTVNTGEIGLRAKARTGPVGHELVASASYFDLEKKNAYVMDFFNQFDTSIYDPVSYAKPAISSTAFRGNDMDDPAKQGVIRLASYALGDTMSFFDDKVLLTAGIRHQRLYQRDYSYDTGIGGTPYEQSHNSPAAGLVVRVTPQVSLYANYIEALSAGDTAPQTANGLPVVNHGESLAPYVSKQKEVGVKFEHDGLGGGLALFSTDKPRGFVGDDQVFRASGKDRHRGVELTTYGELTRSVRVLGGLTWLDAKQLSTGNAATDGKRVIGVPRFQANLGVEWDIPGVQGLTVDGRVVYTGSSYADAANTLEVPGWTRLDAGLRYMTDIGGHLVTWRARVENIANRDYWSSVGGYPGNGYLVLGGPRTFTLSASMEF”, the “soluble on expression in E. coli” value was “not soluble”.
In the case of “MIKLSEKGVFLASNNEIIAEEHFTGEIKKEEAKKGTIAWSILSSHNTSGNMDKLKIKFDSLASHDITFVGIVQTAKASGMERFPLPYVLTNCHNSLCAVGGTINGDDHVFGLSAAQRYGGIFVPPHIAVIHQYMREMMAGGGKMILGSDSHTRYGALGTMAVGEGGGELVKQLLNDTWDIDYPGVVAVHLTGKPAPYVGPQDVALAIIGAVFKNGYVKNKVMEFVGPGVSALSTDFRNSVDVMTTETTCLSSVWQTDEEVHNWLALHGRGQDYCQLNPQPMAYYDGCISVDLSAIKPMIALPFHPSNVYEIDTLNQNLTDILREIEIESERVAHGKAKLSLLDKVENGRLKVQQGIIAGCSGGNYENVIAAANALRGQSCGNDTFSLAVYPSSQPVFMDLAKKGVVADLIGAGAIIRTAFCGPCFGAGDTPINNGLSIRHTTRNFPNREGSKPANGQMSAVALMDARSIAATAANGGYLTSASELDCWDNVPEYAFDVTPYKNRVYQGFVKGATQQPLIYGPNIKDWPELGALTDNIVLKVCSKILDEVTTTDELIPSGETSSYRSNPIGLAEFTLSRRDPGYVSRSKATAELENQRLAGNVSELTEVFARIKQIAGQEHIDPLQTEIGSMVYAVKPGDGSAREQAASCQRVIGGLANIAEEYATKRYRSNVINWGMLPLQMAEVPTFEVGDYIYIPGIKAALDNPGTTFKGYVIHEDAPVTEITLYMESLTAEEREIIKAGSLINFNKNRQM”, the “soluble on expression in E. coli” value is reported as “soluble”.
